Data taken from patent publication US20140072983A1.

Key:
[1] = target: biotin-CCR4 peptide conjugate (human); test: ECL (MSD) bridging assay, biotin-CCR4 peptide on a streptavidin plate, His-CD16a detection; 5% pooled human serum
[2] = target: biotin-CCR4 peptide conjugate (human); test: ECL (MSD) bridging assay, biotin-CCR4 peptide on a streptavidin plate, His-CD16a detection; 0% PHS (assay buffer)
[3] = target: biotin-CCR4 peptide conjugate (human); test: ECL (MSD) bridging assay, biotin-CCR4 peptide on a streptavidin plate, His-CD16a detection; 20% pooled human serum

Sequence of biotin-CCR4 peptide conjugate (human) (peptide, as listed by the source): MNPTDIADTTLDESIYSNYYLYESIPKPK

EC50 (read off the curve) [1]: 0.4 µg/mL
EC50 (read off the curve) [2]: 0.4 µg/mL
EC50 (read off the curve) [3]: 0.4 µg/mL
Substance: KW-0761 (antibody)
